Assay results from patent US20180140742A1.

Tests used:
[1] = molecular target: oriented collagen tube (Porcine Skin Collagen type I) (porcine); assay: depletion assay: tube immersed in fusion protein solution in phosphate buffer; bound = added minus amount left in the supernatant
[2] = molecular target: oriented collagen tube (Porcine Skin Collagen type I) (porcine); assay: depletion assay: tube immersed in fusion protein solution in phosphate buffer; bound = added minus amount left in the supernatant; told of the other added amounts

For bFGF-PKD-CBD fusion protein, the binding amount (when 10 µg added) [1] was 9 µg and the protein binding rate [2] was 90%.
